From patent US20190322730A1

Key:
Assay in all cases: binding screen of Example 5; the reference itself
C3a (human) = C3a (human) (UniProt P01024)
Factor Bb = Factor Bb (UniProt P00751)
C3c = C3c (UniProt P01024)
iC3b = iC3b (UniProt P01024)
C3d = C3d (UniProt P01024)
C3b (human) = C3b (human) (UniProt P01024)
[1] = target: human complement component C3 (human) (UniProt P01024)
human complement component C3 (human), sequence (P01024 23-667, chain 1 of 2): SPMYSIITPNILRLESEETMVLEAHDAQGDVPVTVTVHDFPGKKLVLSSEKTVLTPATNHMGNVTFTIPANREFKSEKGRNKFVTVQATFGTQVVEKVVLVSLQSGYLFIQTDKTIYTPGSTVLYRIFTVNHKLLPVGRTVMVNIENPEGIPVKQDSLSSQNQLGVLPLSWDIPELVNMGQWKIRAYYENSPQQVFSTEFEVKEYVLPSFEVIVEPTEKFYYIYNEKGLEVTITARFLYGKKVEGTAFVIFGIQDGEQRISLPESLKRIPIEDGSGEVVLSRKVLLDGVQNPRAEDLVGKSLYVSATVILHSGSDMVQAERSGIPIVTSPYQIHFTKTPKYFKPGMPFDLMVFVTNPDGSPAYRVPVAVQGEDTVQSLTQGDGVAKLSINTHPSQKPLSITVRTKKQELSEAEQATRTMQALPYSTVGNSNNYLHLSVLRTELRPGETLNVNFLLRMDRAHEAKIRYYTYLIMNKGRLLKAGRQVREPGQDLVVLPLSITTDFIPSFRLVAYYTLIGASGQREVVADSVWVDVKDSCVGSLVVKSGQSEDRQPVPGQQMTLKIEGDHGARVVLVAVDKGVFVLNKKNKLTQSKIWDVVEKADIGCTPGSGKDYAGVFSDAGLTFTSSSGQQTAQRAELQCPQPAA
human complement component C3 (human), sequence (P01024 672-1663, chain 2 of 2): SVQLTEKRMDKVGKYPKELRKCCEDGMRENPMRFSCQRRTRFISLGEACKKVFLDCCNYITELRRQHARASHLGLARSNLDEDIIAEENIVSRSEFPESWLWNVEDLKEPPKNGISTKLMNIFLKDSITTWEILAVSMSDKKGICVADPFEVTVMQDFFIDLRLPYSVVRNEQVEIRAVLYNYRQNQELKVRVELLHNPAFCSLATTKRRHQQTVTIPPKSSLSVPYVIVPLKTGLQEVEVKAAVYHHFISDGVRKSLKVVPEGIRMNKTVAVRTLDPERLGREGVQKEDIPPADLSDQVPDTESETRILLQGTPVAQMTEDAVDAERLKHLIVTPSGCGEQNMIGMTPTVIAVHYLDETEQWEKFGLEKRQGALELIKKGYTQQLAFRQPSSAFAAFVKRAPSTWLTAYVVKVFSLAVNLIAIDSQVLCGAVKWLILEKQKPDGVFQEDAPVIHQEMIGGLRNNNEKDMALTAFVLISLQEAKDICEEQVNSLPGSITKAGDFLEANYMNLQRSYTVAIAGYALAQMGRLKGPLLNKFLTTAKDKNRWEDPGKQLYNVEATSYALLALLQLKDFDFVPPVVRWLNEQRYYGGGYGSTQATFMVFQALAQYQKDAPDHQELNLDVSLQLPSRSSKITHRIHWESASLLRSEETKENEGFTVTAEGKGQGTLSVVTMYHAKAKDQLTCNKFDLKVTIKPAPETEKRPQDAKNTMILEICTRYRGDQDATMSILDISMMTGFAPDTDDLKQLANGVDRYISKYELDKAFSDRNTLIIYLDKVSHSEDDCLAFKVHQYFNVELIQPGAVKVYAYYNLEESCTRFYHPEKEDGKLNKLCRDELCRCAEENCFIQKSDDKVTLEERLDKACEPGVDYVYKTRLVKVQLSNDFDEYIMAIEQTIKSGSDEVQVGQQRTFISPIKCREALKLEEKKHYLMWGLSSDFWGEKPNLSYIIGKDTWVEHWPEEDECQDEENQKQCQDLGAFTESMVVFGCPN

C3b (human), sequence (P01024 23-667 limits assumed, chain 1 of 2): as the sequence (P01024 23-667, chain 1 of 2) above
C3b (human), sequence (P01024 749-1663 limits assumed, chain 2 of 2): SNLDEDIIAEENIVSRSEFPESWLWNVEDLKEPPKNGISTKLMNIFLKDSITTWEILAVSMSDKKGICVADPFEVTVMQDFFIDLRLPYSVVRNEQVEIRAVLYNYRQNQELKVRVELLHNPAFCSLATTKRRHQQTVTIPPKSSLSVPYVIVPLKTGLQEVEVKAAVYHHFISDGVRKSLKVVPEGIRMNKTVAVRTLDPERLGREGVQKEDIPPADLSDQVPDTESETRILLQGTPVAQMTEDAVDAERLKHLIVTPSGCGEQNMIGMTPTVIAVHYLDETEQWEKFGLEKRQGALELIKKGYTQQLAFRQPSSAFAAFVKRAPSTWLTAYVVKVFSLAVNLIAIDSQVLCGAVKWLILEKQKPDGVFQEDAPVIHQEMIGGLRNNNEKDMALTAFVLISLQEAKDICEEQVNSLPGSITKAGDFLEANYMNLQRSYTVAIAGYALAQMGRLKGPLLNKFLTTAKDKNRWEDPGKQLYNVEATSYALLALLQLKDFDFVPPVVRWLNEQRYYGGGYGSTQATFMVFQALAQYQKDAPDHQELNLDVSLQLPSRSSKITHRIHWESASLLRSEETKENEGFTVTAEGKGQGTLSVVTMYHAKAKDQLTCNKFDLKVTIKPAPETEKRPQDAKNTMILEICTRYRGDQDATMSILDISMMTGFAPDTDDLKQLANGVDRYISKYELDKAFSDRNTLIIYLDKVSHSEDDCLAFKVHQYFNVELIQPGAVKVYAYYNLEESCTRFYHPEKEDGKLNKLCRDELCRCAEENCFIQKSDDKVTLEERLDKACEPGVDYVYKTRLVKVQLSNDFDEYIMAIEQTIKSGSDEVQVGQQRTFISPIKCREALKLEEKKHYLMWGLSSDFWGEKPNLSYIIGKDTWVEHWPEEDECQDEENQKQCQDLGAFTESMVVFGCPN
Factor Bb, sequence (P00751 260-764 limits assumed): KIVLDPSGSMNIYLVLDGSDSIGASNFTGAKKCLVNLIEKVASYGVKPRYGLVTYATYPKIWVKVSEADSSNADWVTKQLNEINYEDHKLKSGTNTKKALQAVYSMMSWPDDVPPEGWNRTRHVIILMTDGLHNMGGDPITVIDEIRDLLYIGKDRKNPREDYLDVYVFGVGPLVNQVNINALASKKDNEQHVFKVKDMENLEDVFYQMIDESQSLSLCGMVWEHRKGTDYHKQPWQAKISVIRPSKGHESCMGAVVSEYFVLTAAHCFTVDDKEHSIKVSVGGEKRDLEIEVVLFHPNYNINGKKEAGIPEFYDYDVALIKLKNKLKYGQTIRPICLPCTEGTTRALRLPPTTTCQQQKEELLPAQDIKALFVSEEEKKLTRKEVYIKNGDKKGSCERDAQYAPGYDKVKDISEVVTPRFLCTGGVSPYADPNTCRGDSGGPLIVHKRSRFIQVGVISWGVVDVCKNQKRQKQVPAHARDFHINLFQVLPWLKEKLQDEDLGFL
C3d, sequence (P01024 1002-1303 limits assumed): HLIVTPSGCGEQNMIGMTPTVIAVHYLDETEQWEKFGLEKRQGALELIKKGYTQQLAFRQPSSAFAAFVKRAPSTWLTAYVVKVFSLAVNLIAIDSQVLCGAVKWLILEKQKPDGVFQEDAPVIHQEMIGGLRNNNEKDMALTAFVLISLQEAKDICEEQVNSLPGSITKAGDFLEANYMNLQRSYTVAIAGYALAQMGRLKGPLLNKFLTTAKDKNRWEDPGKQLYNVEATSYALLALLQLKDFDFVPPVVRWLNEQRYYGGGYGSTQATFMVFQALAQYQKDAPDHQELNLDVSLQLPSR
C3a (human), sequence (P01024 672-748 limits assumed): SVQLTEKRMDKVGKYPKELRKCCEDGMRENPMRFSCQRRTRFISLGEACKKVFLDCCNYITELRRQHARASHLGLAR

binding relative to negative control mIgG2 (C3a (human)): 0 | binding relative to negative control mIgG2 (Factor Bb): 0 | binding relative to negative control mIgG2 (C3c): 0 | binding relative to negative control mIgG2 (iC3b): 0 | binding relative to negative control mIgG2 (C3d): 0 | binding relative to negative control mIgG2 (C3b (human)): 0 | binding relative to negative control mIgG2 [1]: 0
Substance: negative control mIgG2 antibody
